Experiments:
HA-GST-tagged Ragulator = HA-GST-tagged Ragulator (UniProt Q9Y2Q5 1-125; Q9UHA4 1-124; Q6IAA8 1-161; O43504 1-91; Q0VGL1 1-99, G2A); test: pull-down
FLAG-tagged Ragulator = FLAG-tagged Ragulator (UniProt Q6IAA8 1-161; Q9UHA4 1-124; Q9Y2Q5 1-125; O43504 1-91; Q0VGL1 1-99, G2A); test: pull-down

binding result (HA-GST-tagged Ragulator): binds
binding result (FLAG-tagged Ragulator): binds
B1: FLAG-tagged c17orf59 (natural protein)
chain: MESSRGRPGPETDLLAVAEHQALVFGGGPGRTSSEPPAGLRVSGEEETENVGGANRHPRTSPKTSSCGVVHRPEREALENEPGPQGTLSGAGSRRGAPGAEHEPSLSSRHKNPAPPEGKPSSGRDCRRGGPGGGMDVEQQEEEDNDEEAAAGSRAGRSFSSRLQDSRSLDGLSEACGGAGSSGSAESGAGGGRRATISSPLELEGTVSRHGDLTHFVANNLQLKIRLSGAPPPPPSAPARPCPAPAPTPTPAIPPIDPEVLRDLERLSRELGGRVDRLLRGLGGAVQELTALSVGCIQTYRDAVDSLGEAVDMSIKGMYTLLARCEELERALQPVQGLARQVRDIRRTLEVLEALCK

Source: article PMC4570232 (Cell reports, 2015)
